Source: the RNAGym collection of RNA variant scans (doi:10.7554/elife.80360)

B1: Hairpin Ribozyme (parent)
chain: GUCCUCUUUCACGUGCGCGUGAAAGAGAGAAGUGAACCAGAGAAACACACGUUGUGGUAUAUUACCUGGUA

Variants of: B1
Assay: self-cleavage, relative activity (ratio to wild type); higher = more cleavage; co-transcriptional
U14C A22U gave a self-cleavage of 1.06.
For U2C U20C, the self-cleavage was 0.273.
Variant A24C G56A has a self-cleavage of 0.1.
With G25U U70C the self-cleavage was 0.679.
Work on A22U U67A yielded a self-cleavage of 0.188.
Work on G1U C65U yielded a self-cleavage of 0.0631.
With A24C C65A the self-cleavage was 0.922.
Work on A22U G42U yielded a self-cleavage of 0.369.
For U2A U63C, the self-cleavage was 0.0787.
U2C A47U gave a self-cleavage of 0.203.
G17C A24C gave a self-cleavage of 0.614.
For A39G A71G, the self-cleavage was 0.222.
In the case of U2C C65G, the self-cleavage is reported as 0.0439.
With A24U A26U the self-cleavage was 0.443.
Variant G25U A64C has a self-cleavage of 0.177.
Variant G13U U20G has a self-cleavage of 0.815.
Work on G29U C38G yielded a self-cleavage of 0.186.
For G17U A43C, the self-cleavage was 0.0947.
Variant A11C U52C has a self-cleavage of 1.06.
C16A C65G showed a self-cleavage of 0.255.
In the case of C3G A35U, the self-cleavage is reported as 0.202.
G27U A28G gave a self-cleavage of 0.119.
G21A A23G gave a self-cleavage of 0.707.
Work on A30C G34A yielded a self-cleavage of 0.0999.
For U60C G69A, the self-cleavage was 0.51.
A24G C65A showed a self-cleavage of 0.706.
With C10G G27C the self-cleavage was 0.147.
With C50U A71U the self-cleavage was 0.211.
G19U U63G gave a self-cleavage of 0.205.
With G34U C66U the self-cleavage was 1.31.
Work on A36U G57C yielded a self-cleavage of 0.172.
G34U C48G gave a self-cleavage of 0.371.
U20A U33A showed a self-cleavage of 0.114.
G1C A36C showed a self-cleavage of 0.107.
For U20G A44C, the self-cleavage was 0.162.
Variant C4U C18G has a self-cleavage of 0.349.
Work on C16G G25C yielded a self-cleavage of 0.302.
For A43G G54A, the self-cleavage was 0.066.
With C16U A49U the self-cleavage was 0.281.
Work on C38U U55A yielded a self-cleavage of 0.168.
Variant A36U A64U has a self-cleavage of 0.165.
U7A A31U gave a self-cleavage of 0.11.
Variant A39U U55G has a self-cleavage of 0.108.
Variant U33C A71G has a self-cleavage of 0.241.
C48A A59U gave a self-cleavage of 0.121.
U14G U63G gave a self-cleavage of 0.153.
C6G G56C gave a self-cleavage of 0.175.
Work on U60A U70A yielded a self-cleavage of 0.61.
G13A U62A gave a self-cleavage of 0.163.
G34A G54C gave a self-cleavage of 0.302.
Work on A49C G68C yielded a self-cleavage of 0.15.
A24G U33A showed a self-cleavage of 0.118.
In the case of C38A C66A, the self-cleavage is reported as 0.216.
Work on A36G U70G yielded a self-cleavage of 1.03.
With G1U U7G the self-cleavage was 0.088.
With A22U U60A the self-cleavage was 0.77.
G1A A41G gave a self-cleavage of 0.0682.
C3G C65G gave a self-cleavage of 0.0169.
U20C U33G showed a self-cleavage of 0.0535.
With C12A A41U the self-cleavage was 1.13.
A30G G56A showed a self-cleavage of 0.0987.
G19U G21C gave a self-cleavage of 0.692.
With C12G U33C the self-cleavage was 0.246.
With G57C U60C the self-cleavage was 0.156.
U7G G57C showed a self-cleavage of 0.206.
A23C G54U gave a self-cleavage of 0.7.
In the case of C3U C10G, the self-cleavage is reported as 0.457.
Work on A26U U55C yielded a self-cleavage of 0.23.
A36U C65G showed a self-cleavage of 0.106.
In the case of G19U A41C, the self-cleavage is reported as 0.899.
Work on A23G G42A yielded a self-cleavage of 0.192.
U14G G34U showed a self-cleavage of 1.11.
With C48U U62C the self-cleavage was 0.118.
In the case of A39C A43G, the self-cleavage is reported as 0.085.
U53A C65A gave a self-cleavage of 0.901.
In the case of G19C G32U, the self-cleavage is reported as 0.173.
Variant A31U A44C has a self-cleavage of 0.101.
Variant A36G U58G has a self-cleavage of 0.952.
With U2C G25C the self-cleavage was 0.118.
Variant U33A A59C has a self-cleavage of 0.143.
In the case of A45C U70G, the self-cleavage is reported as 0.133.
Work on G21A U52A yielded a self-cleavage of 0.78.
C18G G57C gave a self-cleavage of 0.194.
